Test results reported in publication PMC9629720, “Lipids mediate supramolecular outer membrane protein assembly in bacteria” (Science Advances, 2022).

Tests used:
[1] = molecular target: OmpF V177^BPA cross-linked to phospholipid (anion exchange peak 1) (E. coli) (UniProt P02931); test: native MS; purified OmpF samples, 5 μM in 1% β-OG, 0.2 M ammonium acetate pH 6.9; the OmpF trimer itself
[2] = molecular target: OmpF V177^BPA cross-linked to LPS (anion exchange peak 2) (E. coli) (UniProt P02931); test: as above
[3] = molecular target: OmpF, wild type, purified (E. coli) (UniProt P02931); test: as above
[4] = molecular target: OmpF (endogenous, co-extracted with FepA^BPA) (E. coli (endogenous in BW25113)) (UniProt P02931); test: native MS; FepA^BPA preparations with co-extracted porins, 5 μM in 1% β-OG, 0.2 M ammonium acetate pH 6.9; make-up of the porin trimers
[5] = molecular target: the molecule itself; test: as above
[6] = molecular target: T1, OmpF (endogenous, co-extracted with FepA^BPA) (E. coli (endogenous in BW25113), UniProt P02931 23-362); test: as above; conditions: partners not purified
T1 construct: OmpF, 16-stranded β barrel porin of E. coli; Found as homotrimers and as heterotrimers with OmpC; also called OmpF/C; porins; source: endogenous, outer membrane of E. coli BW25113 ΔfepA
T1 sequence (looked up): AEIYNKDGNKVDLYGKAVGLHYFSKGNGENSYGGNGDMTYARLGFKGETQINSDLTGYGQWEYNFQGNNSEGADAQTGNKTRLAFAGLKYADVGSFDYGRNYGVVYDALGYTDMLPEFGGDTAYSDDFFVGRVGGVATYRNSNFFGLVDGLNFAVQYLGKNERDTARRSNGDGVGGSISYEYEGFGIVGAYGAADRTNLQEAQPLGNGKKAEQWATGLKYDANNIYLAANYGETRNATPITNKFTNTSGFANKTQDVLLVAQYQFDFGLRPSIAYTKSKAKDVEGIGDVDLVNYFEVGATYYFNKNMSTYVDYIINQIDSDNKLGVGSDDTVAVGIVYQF

**Q.** For “OmpF V177^BPA cross-linked to phospholipid (anion exchange peak 1) (from UniProt P02931 23-362) (natural protein)”, which stoichiometry N [1] is on record?
**A.** 3

**Q.** With “OmpF V177^BPA cross-linked to LPS (anion exchange peak 2) (from UniProt P02931 23-362) (natural protein)” as the molecule, how does the stoichiometry N [2] read?
**A.** 3

**Q.** For “OmpF, wild type, purified (from UniProt P02931 23-362) (natural protein)”, which stoichiometry N [3] is on record?
**A.** 3

**Q.** With “OmpF (endogenous, co-extracted with FepA^BPA) (from UniProt P02931 23-362) (natural protein)” as the molecule, how does the stoichiometry N [4] read?
**A.** 3

B1: OmpC (endogenous, co-extracted with FepA^BPA) (natural protein, E. coli (endogenous in BW25113), UniProt P06996 22-367, looked up)
chain: AEVYNKDGNKLDLYGKVDGLHYFSDNKDVDGDQTYMRLGFKGETQVTDQLTGYGQWEYQIQGNSAENENNSWTRVAFAGLKFQDVGSFDYGRNYGVVYDVTSWTDVLPEFGGDTYGSDNFMQQRGNGFATYRNTDFFGLVDGLNFAVQYQGKNGNPSGEGFTSGVTNNGRDALRQNGDGVGGSITYDYEGFGIGGAISSSKRTDAQNTAAYIGNGDRAETYTGGLKYDANNIYLAAQYTQTYNATRVGSLGWANKAQNFEAVAQYQFDFGLRPSLAYLQSKGKNLGRGYDDEDILKYVDVGATYYFNKNMSTYVDYKINLLDDNQFTRDAGINTDNIVALGLVYQF
notes: OmpC, porin, structural homolog of OmpF, E. coli; Found as homotrimers and as heterotrimers with OmpF; also called OmpF/C; porins; source: endogenous, outer membrane of E. coli BW25113 ΔfepA
**Q.** How did the “stoichiometry N” value [5] turn out when B1 was run?
**A.** 3

**Q.** And the “stoichiometry N” value [6]?
**A.** 3
